The values below come from article PMC8809517, “Cofactor-independent RNA editing by a synthetic S-type PPR protein”.

What is called Kd is the equilibrium constant for the complex coming apart. A high value points to a looser complex.

Assay in all cases: high-throughput RNA pulldown from lysate on Ni-NTA beads; HRP: 50 mM Tris pH 8, 150 mM NaCl, 1 mM beta-mercaptoethanol, 50 ug/ml BSA, 3 ug/ml yeast RNA, 0.5% heparin; ITC and FP: Tris pH 8, 200 mM KCl, 5% glycerol; MST: 50 mM Tris pH 8, 200 mM NaCl, 1 mM DTT, BSA, heparin, 0.05% Tween 20
What all share (conditions): tags: N-terminal His-eGFP

Data set [1] concerns the target T1, GFP-9S library array, motif 4 ND N98L;D124P (synthetic construct, N98L;D124P).
T1 chain: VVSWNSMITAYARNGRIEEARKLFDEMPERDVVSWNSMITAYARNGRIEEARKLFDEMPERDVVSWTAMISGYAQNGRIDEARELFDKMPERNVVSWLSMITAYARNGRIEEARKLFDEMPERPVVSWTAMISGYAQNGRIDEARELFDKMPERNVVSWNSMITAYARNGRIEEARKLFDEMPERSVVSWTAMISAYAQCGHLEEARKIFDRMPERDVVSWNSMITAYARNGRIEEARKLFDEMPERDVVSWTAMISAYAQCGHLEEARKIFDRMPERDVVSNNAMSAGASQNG

The target of data set [2] is T2, GFP-9S library array, motif 4 ND N98D;D124R (synthetic construct, N98D;D124R).
T2 chain: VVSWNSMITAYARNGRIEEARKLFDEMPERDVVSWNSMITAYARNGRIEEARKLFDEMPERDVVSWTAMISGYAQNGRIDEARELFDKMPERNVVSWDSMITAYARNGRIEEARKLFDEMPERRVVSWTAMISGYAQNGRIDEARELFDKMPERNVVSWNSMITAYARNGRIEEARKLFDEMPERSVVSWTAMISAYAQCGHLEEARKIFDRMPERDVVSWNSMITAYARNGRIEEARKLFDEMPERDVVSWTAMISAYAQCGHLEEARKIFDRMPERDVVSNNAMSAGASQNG

The target in data set [3] is T3, GFP-9S library array, motif 4 ND N98I;D124T (synthetic construct, N98I;D124T).
T3 chain: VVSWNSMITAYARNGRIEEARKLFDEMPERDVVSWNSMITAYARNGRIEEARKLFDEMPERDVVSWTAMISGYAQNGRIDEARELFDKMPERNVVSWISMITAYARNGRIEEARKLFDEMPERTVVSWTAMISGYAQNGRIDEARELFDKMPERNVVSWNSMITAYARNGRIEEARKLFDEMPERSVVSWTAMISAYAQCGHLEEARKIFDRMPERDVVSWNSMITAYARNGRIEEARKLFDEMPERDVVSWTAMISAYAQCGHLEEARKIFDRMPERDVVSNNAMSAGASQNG

Data set [4] has as its target T4, GFP-9S library array, motif 4 ND N98T;D124F (synthetic construct, N98T;D124F).
T4 chain: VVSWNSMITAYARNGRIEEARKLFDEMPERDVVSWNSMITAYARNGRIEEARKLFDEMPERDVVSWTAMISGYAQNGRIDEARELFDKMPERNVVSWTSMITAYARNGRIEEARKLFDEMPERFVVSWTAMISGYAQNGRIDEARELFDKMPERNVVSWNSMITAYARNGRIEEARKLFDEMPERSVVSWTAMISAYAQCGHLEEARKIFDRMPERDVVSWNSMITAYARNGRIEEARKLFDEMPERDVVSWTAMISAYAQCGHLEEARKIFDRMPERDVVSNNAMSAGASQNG

Data set [5] addresses T5, GFP-9S library array, motif 4 ND N98G;D124P (synthetic construct, N98G;D124P).
T5 chain: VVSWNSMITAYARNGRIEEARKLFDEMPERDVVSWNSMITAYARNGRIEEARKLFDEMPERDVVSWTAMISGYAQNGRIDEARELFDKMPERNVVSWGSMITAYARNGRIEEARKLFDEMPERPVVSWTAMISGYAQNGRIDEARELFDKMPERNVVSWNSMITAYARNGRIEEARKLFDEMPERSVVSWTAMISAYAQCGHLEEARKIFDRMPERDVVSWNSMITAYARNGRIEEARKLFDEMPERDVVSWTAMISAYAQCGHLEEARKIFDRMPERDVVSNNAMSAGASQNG

In the case of AUUAAACGUGA (ssRNA) [IR-rpoA-A], the Kd turned out to be 213 nM in data set [1] (label: 5' IRDye 800CW); 326 nM in data set [2] (label: 5' IRDye 800CW); 158 nM in data set [3] (label: 5' IRDye 800CW); 173 nM in data set [4] (label: 5' IRDye 800CW); 179 nM in data set [5] (label: 5' IRDye 800CW).

Turning to AUUAGACGUGA (ssRNA) [Cy5-rpoA-G], the dissociation constant (Kd) in data set [1] (label: 5' Cy5) was found to be 114 nM; in data set [2] (label: 5' Cy5), 155 nM; in data set [3] (label: 5' Cy5) it was 145 nM; in data set [4] (label: 5' Cy5), 160 nM; in data set [5] (label: 5' Cy5), 127 nM.

AUUAUACGUGA (ssRNA) [IR-rpoA-U]: the Kd worked out at 145 nM in data set [1] (label: 5' IRDye 800CW); 282 nM in data set [2] (label: 5' IRDye 800CW); 59.1 nM in data set [3] (label: 5' IRDye 800CW); 637 nM in data set [4] (label: 5' IRDye 800CW); 128 nM in data set [5] (label: 5' IRDye 800CW).

Regarding AUUACACGUGA (ssRNA) [Cy5-rpoA], the Kd in data set [1] (label: 5' Cy5) was 97.7 nM; in data set [2] (label: 5' Cy5), 154 nM; in data set [3] (label: 5' Cy5), 141 nM; in data set [4] (label: 5' Cy5) it was 241 nM; in data set [5] (label: 5' Cy5) it was 85.9 nM.
